Values quoted from earlier work in article PMC11061240.
Like-named read-outs stand apart in the source and are kept apart here.

How the values were obtained:
FGL1 [1] = biological target: FGL1 (UniProt Q08830); assay: BLI
FGL1 [2] = biological target: FGL1 (UniProt Q08830)
[3] = biological target: α-synuclein preformed fibrils (UniProt P37840)

UniProt Q08830, sequence (Q08830 23-312): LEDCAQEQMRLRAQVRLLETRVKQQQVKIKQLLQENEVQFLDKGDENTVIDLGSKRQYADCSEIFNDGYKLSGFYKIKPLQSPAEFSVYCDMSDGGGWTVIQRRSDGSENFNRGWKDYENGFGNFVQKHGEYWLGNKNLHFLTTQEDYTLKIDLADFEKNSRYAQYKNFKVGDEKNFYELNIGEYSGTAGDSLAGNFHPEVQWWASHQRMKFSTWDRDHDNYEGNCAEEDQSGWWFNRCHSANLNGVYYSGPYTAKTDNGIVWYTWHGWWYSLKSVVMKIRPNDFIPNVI

Kd (FGL1 [1]) | Kd (FGL1 [2]) | Kd [3] | Substance
1.5 nM |  |  | LAG3 ECD (from UniProt Q61790)
 | 7000 nM | 80 nM | LAG3 (from UniProt P18627)
